According to patent US20220242962A1 (APTEVO RESEARCH AND DEVELOPMENT, published 2022):

Assays:
[1] = target: T1, Full-length Human OX40 (human, UniProt P43489 29-277); assay: flow cytometry, CHO cells expressing human OX40
T1 construct: also called OXF001; human OX40/CHO
T1 sequence: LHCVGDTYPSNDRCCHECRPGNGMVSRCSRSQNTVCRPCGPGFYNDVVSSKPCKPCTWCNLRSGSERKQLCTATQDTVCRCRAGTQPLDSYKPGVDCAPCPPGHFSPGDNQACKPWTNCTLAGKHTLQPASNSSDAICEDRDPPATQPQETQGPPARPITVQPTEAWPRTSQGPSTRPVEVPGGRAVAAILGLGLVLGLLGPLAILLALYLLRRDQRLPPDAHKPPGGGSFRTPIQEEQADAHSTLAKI

[2] = target: T2, Full-length Human 4-1BB (human, UniProt Q07011 24-255); assay: flow cytometry, Jurkat cells expressing human 4-1BB
T2 construct: also called FOB005; CD137
T2 sequence (Q07011 24-255): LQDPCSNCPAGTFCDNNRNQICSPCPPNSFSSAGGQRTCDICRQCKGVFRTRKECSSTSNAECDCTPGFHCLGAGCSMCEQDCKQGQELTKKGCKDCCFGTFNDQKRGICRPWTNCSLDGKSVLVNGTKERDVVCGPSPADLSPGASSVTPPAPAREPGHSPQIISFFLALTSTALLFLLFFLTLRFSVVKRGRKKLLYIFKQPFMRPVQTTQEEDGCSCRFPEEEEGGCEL
Experimental: Serial dilutions of ADAPTIR™ constructs were incubated with cells transfected with human or cynomolgus ECD and subsequently labelled with a fluorescently-conjugated goat-α-human Fc secondary antibody. […] (See Example 16.)

[3] = target: T3, Recombinant FcRn/b2M protein (human, UniProt P55899 24-297; P61769 21-119, limits assumed); assay: SPR pH 6.0, FcRn/b2M immobilized, two-state reaction model
T3 construct: also called hFcRn/b2M; neonatal Fc receptor
T3 sequence (P55899 24-297 limits assumed, chain 1 of 2): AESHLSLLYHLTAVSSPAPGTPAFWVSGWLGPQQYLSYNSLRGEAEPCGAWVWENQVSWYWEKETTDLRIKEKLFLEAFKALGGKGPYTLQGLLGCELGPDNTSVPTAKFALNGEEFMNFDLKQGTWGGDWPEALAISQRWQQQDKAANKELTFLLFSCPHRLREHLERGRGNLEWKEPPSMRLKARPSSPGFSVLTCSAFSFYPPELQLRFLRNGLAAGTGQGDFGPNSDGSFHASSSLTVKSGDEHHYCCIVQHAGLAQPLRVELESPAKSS
T3 sequence (P61769 21-119 limits assumed, chain 2 of 2): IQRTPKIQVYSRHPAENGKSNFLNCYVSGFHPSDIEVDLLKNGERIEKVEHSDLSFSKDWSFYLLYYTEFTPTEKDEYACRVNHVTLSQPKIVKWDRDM
Experimental: Recombinant FcRn/b2M protein was generated via transient transfection of HEK-293 cells with a bi-cistronic vector containing the genes for both FcRn and […]. The complex was purified using IMAC chromatography and subsequently buffer exchanged into IMAC elution buffer after verifying purity of the IMAC eluate by analytical SEC. hFcRn/b2M at 10 μg/ml in 10 mM sodium acetate (pH 4.5) was immobilized on a CM5 chip by direct amine coupling chemistry to a level of ˜600 RU. A reference flow cell was left blank.
Different concentrations of the Fc variant protein (5-80 nM by 2-fold dilutions in pH 6.0 running buffer) including running buffer as blank were injected in randomized order at 30 μL/min for 180 seconds followed by a 120 second dissociation period.
Sensorgrams obtained from kinetic SPR measurements were analyzed by the double subtraction method. The signal from the reference flow cell was subtracted from the analyte binding response obtained from flow cell with immobilized ligands. Buffer reference was subtracted from analyte binding responses, and the final double-referenced data were analyzed with Biacore T200 Evaluation software (2.0, GE), globally fitting data to derive kinetic parameters. All sensorgrams were fitted using two-state reaction model, as described in Weirong Wang et al, DrugMetab Dispos.: 39(9): 1469-77 (2011).

[4] = target: T4, Fc gamma receptor RI (human, UniProt P12314 16-288); assay: SPR, Fc captured, receptor as analyte, relative to wild type Fc
T4 construct: also called FcγRI
T4 sequence (P12314 16-288 limits assumed): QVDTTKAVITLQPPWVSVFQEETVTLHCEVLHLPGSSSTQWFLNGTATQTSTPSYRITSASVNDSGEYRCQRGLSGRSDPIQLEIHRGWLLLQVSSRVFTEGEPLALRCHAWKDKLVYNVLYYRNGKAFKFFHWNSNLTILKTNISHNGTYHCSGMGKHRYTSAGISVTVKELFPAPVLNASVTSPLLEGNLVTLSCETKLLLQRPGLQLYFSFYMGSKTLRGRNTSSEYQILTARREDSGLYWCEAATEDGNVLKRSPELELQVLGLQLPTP
Experimental: (§1) Fc mutations to be potentially integrated into an ADAPTIR™ bispecific construct were analyzed for binding to the common Fc receptors (human and cyno) and C1Q, which is a component of the complement activation system. SPR experiments were conducted at 25° C. in HBS-EP+ buffer on a Biacore T200 system.
(§2) For these experiments, all four flow cells of a CM5 sensor chip were immobilized with goat F(ab′)2 anti-human Fc (Jackson ImmunoResearch) to a response level of ˜4000 RU. Fc variants and wild type Fc were diluted to 100 nM in HBS-EP+ and captured on the surface of the chip for 120 seconds at a flow rate of 10 μL/min. Fcγ receptors (human and cyno, all purchased from R&D Systems) and complement (C1Q, purchased from Quidel Corporation and Complement Technology, Inc) were diluted in HBS-EP+ and then flowed as analytes at 30 μL/min for 120 seconds followed by a 120 seconds dissociation. Regeneration was achieved by flowing 10 mM glycine pH 1.7 at 30 μL/min for 30 seconds followed by a 60 seconds stabilization. Flow cell 1 was always left as a blank (no captured protein) for purposes of background signal subtraction. Blank-subtracted sensorgrams for each captured Fc variant were inspected for the presence of binding to any of the Fcγ receptor proteins or complement. There are polymorphisms in the Human Fc receptors IIA and RIIIA, so both sequences were tested for binding.

[5] = target: T5, Fc gamma receptor RIIIA V176 (human, UniProt P08637 17-208); assay: as above
T5 construct: soluble SPR analyte
T5 sequence (P08637 17-208 F176V): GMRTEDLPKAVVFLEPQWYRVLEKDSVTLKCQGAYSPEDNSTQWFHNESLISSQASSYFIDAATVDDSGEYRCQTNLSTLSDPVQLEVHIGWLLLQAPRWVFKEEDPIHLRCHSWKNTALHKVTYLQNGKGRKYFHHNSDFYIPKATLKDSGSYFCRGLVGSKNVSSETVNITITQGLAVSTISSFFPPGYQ
Experimental: as §1, §2

B1: FXX01066 (bispecific antibody)
chain: EVQLVQSGAEVKKPGASVKVSCKASGYTFTSYWMNWVRQAPGQGLEWMGNIYPSGGSTNYAQKFQGRVTMTVDTSTSTVYMELSSLRSEDTAVYYCASFSDGYYAYAMDYWGQGTLVTVSSGGGGSGGGGSGGGGSGGGGSEIVMTQSPATLSLSPGERATLSCRASQSVSSYLNWYQQKPGQAPRLLIYYASRRHTGIPARFSGSGSGTDFTLTISSLQPEDFAVYYCQQGYNLPYTFGQGTKVEIKEPKSSDKTHTCPPCPAPPAAAPSVFLFPPKPKDTLMISRTPEVTCVVVDVSHEDPEVKFNWYVDGVEVHNAKTKPREEQYNSTYRVVSVLTVLHQDWLNGKEYKCAVSNKALPAPIEKTISKAKGQPREPQVYTLPPSRDELTKNQVSLTCLVKGFYPSDIAVEWESNGQPENNYKTTPPVLDSDGSFFLYSKLTVDKSRWQQGNVFSCSVMHEALHNHYTQKSLSLSPGGGGSPSSYVLTQPPSVSVAPGQTARITCGGNNIGSKSVNWFQQKPGQAPVLVVYDDSGRPSGIPERFSGSTSGNTATLTISRVEAGDEADYYCQVWDSSSDHVVFGGGTKLTVLGGGGSGGGGSGGGGSGGGGSQVQLVESGGGVVQPGRSLRLSCAASGFTLSYYGMHWVRQAPGKGLEWVAAISHDGSDKYYADSVKGRFTISRDNSKNTLYLQMNSLRAEDTAVYYCSNDQFDPWGQGTLVTVSSR
notes: ADAPTIR scFv-Fc-scFv, anti-4-1BB (VH-VL) N-terminal, anti-OX40 C-terminal, PAA (del) Fc; also called FX01066
EC50 [1]: 0.57 nM | EC50 [2]: 0.27 nM | Max MFI [2]: 4540 MFI

B2: TSC 1005 (other)
chain: EPKSSDKTHTCPPCPAPPVAAPSVFLFPPKPKDTLMISRTPEVTCVVVDVSHEDPEVKFNWYVDGVEVHNAKTKPREEQYNSTYRVVSVLTVLHQDWLNGKEYKCAVSNKALPAPIEKTISKAKGQPREPQVYTLPPSRDELTKNQVSLTCLVKGFYPSDIAVEWESNGQPENNYKTTPPVLDSDGSFFLYSKLTVDKSRWQQGNVFSCSVMHEALHNHYTQKSLSLSPG
notes: IgG1 Fc with E233P, L234V, L235A, deletion of G236, G237A, K322A (EU); also called PVAdel TSC01005
Kd [3]: 20 nM | binding result [4]: binds | binding result [5]: binds
